Measurements reported in patent US20030108922A1.

Columns and labels:
[1] = target: mouse IgG (mouse); experiment: sandwich immunoassay (SAM + primary Ab + mouse IgG + Ab-AP) on an Au-coated silicon wafer macrochip; CV of PAPR; antigen concentration not stated
[2] = target: mouse IgG (mouse); experiment: sandwich immunoassay (SAM + primary Ab + mouse IgG + Ab-AP) on an Au-coated LTCC macrochip, sonicated for 2 min; CV of PAPR; antigen concentration not stated
[3] = target: mouse IgG (mouse); experiment: sandwich immunoassay (SAM + primary Ab + mouse IgG + Ab-AP) on an Au-coated LTCC macrochip, not sonicated; CV of PAPR; antigen concentration not stated

signal [1]: 27.7 Acm^-2
signal [2]: 30 Acm^-2
signal [3]: 34.6 Acm^-2
Substance: secondary antibody (to mouse IgG) conjugated to alkaline phosphatase
